Measurements published in article PMC9381478, “A context-dependent and disordered ubiquitin-binding motif” (Cellular and Molecular Life Sciences: CMLS, 2022).
Like-named read-outs stand apart in the source and are kept apart here. Blank lines part the entries; values can stand above or below the substance they belong to.

Experiments:
[1] = biological target: S. pombe ubiquitin with an N-terminal 6xhistidine-tag, TEV-cleavage site and an N-terminal free cysteine (S. pombe) (UniProt P0CG72); experiment: NMR titration; 100 µM 15N-ubiquitin, unlabelled peptide or protein added or titrated (peptides to 1 mM, WT Dss1 peptide to 5 mM); 20 mM NaH2PO4, 150 mM NaCl, 5 mM TCEP, pH 7.5; CSPs of 1H-15N-HSQC, global fit to a one-site model
[2] = biological target: SUMO (Homo sapiens) (UniProt P63165); conditions: cited from earlier work
Chain of SUMO (Homo sapiens) (P63165 2-97): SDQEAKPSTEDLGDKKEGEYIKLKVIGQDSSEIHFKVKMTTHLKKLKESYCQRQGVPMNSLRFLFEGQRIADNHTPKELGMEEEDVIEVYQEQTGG

[3] = biological target: SUMO (Homo sapiens) (UniProt P63165); conditions: cited from earlier work; remark: listed apart in the source
[4] = biological target: ubiquitin (UniProt P0CG48); conditions: cited from earlier work
[5] = biological target: ubiquitin (UniProt P0CG48); conditions: cited from earlier work; remark: listed apart in the source

Chain of RABEX5 UIM (Q9UJ41 48-74): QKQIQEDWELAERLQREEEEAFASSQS
Chain of Vps27 UIM (P40343 258-277): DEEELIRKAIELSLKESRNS

Kd [1]: 25 µM
Substance: Dss1 DMD (from UniProt O14140 1-71) (natural protein)

Kd [1]: 300 µM
Substance: Dss1 DWD (from UniProt O14140 1-71) (natural protein)

Substance: PIASX (from UniProt O75928)
Kd [2]: 1000 nM

Substance: PML-P (from UniProt P29590)
Kd [3]: 100 µM

Substance: RABEX5 UIM (from UniProt Q9UJ41)
Kd [4]: 100 µM

Kd [1]: 3100 µM
Substance: Spd1 peptide (15-mer with the DisUBM of S. pombe Spd1)

Substance: Vps27 UIM (from UniProt P40343)
Kd [5]: 20 µM
